In article PMC3285272 (Cell, 2012):

Experiments:
full-length γζ-COP dimer = biological target: T1, full-length γζ-COP dimer (B. taurus, UniProt P53620 1-874; P35604 1-177); test: pull-down
T1 sequence (looked up) 1: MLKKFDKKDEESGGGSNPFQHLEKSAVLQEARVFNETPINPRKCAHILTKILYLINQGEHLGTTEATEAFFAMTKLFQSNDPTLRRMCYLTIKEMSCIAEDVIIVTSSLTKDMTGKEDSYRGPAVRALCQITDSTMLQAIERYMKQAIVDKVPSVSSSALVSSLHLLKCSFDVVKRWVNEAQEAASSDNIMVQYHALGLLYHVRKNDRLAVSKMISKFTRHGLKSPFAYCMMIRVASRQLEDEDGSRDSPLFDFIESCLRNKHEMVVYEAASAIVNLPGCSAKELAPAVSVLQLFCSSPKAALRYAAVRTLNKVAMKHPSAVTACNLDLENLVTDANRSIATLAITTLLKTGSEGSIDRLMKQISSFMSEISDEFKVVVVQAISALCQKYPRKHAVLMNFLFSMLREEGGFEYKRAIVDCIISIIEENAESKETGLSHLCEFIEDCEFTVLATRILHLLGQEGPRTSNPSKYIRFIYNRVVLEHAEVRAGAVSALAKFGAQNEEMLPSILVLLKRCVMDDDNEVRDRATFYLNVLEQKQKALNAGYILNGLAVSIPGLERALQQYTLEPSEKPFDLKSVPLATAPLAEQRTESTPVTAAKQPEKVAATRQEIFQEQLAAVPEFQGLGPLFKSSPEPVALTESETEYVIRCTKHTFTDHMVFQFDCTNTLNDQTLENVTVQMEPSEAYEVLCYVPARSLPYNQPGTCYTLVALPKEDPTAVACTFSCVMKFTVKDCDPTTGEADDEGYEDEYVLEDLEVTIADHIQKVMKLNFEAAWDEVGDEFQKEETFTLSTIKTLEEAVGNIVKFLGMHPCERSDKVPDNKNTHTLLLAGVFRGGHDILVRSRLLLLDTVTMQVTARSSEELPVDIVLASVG
T1 sequence (looked up) 2: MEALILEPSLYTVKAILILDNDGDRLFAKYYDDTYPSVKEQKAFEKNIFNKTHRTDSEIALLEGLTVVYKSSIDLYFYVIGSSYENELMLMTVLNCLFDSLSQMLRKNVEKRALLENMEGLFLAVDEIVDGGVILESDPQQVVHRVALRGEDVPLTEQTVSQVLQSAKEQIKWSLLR

full-length βδ-COP dimer = biological target: T2, full-length βδ-COP dimer (R. norvegicus | B. taurus, UniProt P23514 1-953; P53619 1-511); test: pull-down
T2 sequence (looked up) 1: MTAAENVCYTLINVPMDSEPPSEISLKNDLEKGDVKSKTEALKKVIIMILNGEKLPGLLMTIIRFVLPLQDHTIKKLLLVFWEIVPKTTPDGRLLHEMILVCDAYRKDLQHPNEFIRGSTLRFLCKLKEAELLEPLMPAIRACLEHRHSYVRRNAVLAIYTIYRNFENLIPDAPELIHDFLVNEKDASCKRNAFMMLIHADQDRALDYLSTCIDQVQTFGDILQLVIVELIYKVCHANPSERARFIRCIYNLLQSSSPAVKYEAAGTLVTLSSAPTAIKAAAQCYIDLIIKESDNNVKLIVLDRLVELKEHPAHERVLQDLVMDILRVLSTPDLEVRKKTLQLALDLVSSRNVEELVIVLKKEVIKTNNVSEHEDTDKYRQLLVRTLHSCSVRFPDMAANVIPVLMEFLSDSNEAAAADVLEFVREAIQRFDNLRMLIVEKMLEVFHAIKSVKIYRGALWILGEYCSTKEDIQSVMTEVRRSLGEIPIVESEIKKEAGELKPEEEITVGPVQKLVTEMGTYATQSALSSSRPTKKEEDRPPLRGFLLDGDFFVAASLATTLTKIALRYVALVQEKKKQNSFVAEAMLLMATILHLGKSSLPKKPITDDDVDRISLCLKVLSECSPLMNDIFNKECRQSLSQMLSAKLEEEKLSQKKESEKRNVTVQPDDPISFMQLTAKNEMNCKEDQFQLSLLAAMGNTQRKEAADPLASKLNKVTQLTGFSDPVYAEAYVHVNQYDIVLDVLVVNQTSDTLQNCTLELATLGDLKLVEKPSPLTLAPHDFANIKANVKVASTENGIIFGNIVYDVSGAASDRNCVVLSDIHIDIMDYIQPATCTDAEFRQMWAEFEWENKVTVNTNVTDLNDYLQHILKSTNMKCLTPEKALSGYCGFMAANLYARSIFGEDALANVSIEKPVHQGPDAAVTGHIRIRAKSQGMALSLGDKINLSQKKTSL
T2 sequence (looked up) 2: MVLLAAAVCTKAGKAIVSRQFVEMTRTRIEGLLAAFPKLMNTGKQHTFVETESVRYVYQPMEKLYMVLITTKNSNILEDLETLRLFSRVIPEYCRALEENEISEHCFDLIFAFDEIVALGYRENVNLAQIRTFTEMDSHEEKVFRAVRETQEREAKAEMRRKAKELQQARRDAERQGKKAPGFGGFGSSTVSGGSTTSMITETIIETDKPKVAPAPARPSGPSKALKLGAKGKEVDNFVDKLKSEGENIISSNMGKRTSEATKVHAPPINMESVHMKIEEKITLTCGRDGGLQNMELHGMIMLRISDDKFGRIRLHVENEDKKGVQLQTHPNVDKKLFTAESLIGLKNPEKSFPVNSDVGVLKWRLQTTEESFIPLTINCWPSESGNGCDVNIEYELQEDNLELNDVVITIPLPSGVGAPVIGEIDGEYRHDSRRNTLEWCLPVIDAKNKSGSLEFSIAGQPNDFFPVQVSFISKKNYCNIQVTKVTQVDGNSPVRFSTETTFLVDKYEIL

- binding result (full-length γζ-COP dimer): binds
- binding result (full-length βδ-COP dimer): binds
B1: S. cerevisiae Arf1 (residues 18–181) with a C-terminal GST tag (domain or fragment, UniProt P11076 18-181, looked up)
chain: MRILMVGLDGAGKTTVLYKLKLGEVITTIPTIGFNVETVQYKNISFTVWDVGGQDRIRSLWRHYYRNTEGVIFVVDSNDRSRIGEAREVMQRMLNEDELRNAAWLVFANKQDLPEAMSAAEITEKLGLHSIRNRPWFIQATCATSGEGLYEGLEWLSNSLKNST
